# Laboratory results: patent US20220332804A1 (CSL INNOVATION, published 2022)
# Substitutions are numbered along the chain they refer to.
# T1: human C2 E556A (human, UniProt P06681 21-752)
# T1 sequence: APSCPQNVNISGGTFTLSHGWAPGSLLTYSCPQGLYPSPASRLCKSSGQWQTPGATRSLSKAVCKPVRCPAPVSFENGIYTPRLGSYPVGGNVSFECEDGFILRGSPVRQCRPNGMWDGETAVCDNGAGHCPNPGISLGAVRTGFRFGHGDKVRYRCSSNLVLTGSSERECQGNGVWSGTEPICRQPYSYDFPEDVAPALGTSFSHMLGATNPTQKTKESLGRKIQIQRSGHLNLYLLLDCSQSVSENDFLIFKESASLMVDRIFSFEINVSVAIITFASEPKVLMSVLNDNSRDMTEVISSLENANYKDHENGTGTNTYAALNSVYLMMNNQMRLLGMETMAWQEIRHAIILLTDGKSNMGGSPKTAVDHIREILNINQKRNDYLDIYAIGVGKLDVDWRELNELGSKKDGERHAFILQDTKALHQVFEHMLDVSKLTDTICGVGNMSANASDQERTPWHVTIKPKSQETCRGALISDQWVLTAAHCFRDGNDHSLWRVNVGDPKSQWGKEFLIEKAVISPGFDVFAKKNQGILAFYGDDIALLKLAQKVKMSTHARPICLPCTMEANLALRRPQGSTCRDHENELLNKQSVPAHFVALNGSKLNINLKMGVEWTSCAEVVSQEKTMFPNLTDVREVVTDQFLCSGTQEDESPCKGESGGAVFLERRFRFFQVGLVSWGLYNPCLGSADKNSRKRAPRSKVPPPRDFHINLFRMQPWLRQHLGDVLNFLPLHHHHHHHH
# T2: human C2 N703A (human, UniProt P06681 21-752)
# T2 sequence: T1 sequence with A536E, N683A
# T3: human C2 A717S (human, UniProt P06681 21-752)
# T3 sequence: T1 sequence with A536E, A697S
# T4: human C2 L620A (human, UniProt P06681 21-752)
# T4 sequence: T1 sequence with A536E, L600A
# B1: RF16-226 (antibody, human IgG4 S228P, lambda)
# heavy: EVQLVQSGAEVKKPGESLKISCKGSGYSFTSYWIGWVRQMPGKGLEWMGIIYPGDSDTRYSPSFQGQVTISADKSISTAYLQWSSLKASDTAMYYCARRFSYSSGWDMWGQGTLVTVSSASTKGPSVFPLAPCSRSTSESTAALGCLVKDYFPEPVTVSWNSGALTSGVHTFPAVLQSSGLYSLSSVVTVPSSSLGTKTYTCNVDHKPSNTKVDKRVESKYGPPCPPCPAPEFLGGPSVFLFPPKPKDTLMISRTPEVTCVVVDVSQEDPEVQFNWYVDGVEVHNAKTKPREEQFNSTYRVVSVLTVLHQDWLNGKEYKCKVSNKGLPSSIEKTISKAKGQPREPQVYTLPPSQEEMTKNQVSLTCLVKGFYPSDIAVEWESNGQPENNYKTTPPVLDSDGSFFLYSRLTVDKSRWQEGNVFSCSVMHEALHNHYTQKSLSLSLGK
# light: SYELTQPPSVSVSPGQTARITCSGDALTSKYVAWYQQKSGLAPLLVIYEDTRRPSGIPAKFSGSSSGSVATLTISGAHGDDEADYYCYSTDASGHQRVFGGGTKLTVLSQPKAAPSVTLFPPSSEELQANKATLVCLISDFYPGAVTVAWKADGSPVKAGVETTKPSKQSNNKYAASSYLSLTPEQWKSHRSYSCQVTHEGSTVEKTVAPTECS
# notes: pH-dependent anti-C2 antibody from a phage display library; also called WT
# Experiments:
# Assay in all cases: SPR, antibody captured, C2 as analyte;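 note: biacore SPR at 37 °C, anti-C2 mAbs captured via goat anti-human IgG on CM5 chips, double-referenced sensorgrams fit to a 1:1 kinetic or steady-state model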
# human C2 E556A = target: T1, human C2 E556A
# human C2 N703A = target: T2, human C2 N703A
# human C2 A717S = target: T3, human C2 A717S
# human C2 L620A = target: T4, human C2 L620A
binder,measurement,setting,value
B1,Kd,human C2 E556A,5.9 nM
same,Kd,human C2 N703A,292 nM
same,Kd,human C2 A717S,406 nM
same,Kd,human C2 L620A,11.1 nM
